This data set relates to Nc1nc2c(ncn2[C@@H]2O[C@H](COP(=O)(O)O[C@H]3[C@@H](O)[C@H](n4cnc5c(N)ncnc54)O[C@@H]3CO)[C@@H](O)[C@H]2O)c(=O)[nH]1. The data set can be described thus: purified protein, by the assay type. As to conditions: pH 7.4; 24.0 °C.

As a reminder, the Km is the substrate concentration at which the rate is half of its maximum.

With “influenza B polymerase initiating RNA synthesis at the vRNA promoter (vPol) (Influenza B virus (B/Memphis/13/2003))”, the Km was 58 ± 18 µM.

These data come from PMC5399792.
